From patent US20130129763A1 (ARNE FORSGREN, published 2013)
Read-outs that look alike come from different tables or passages of the source.

Experiments:
[1] = molecular target: UspA1 on the surface of M. catarrhalis (clinical isolates BBH18 and RH4) (Moraxella catarrhalis); assay: flow cytometry on M. catarrhalis RH4 ΔuspA2 (UspA1 left on the surface) incubated with C3met: rabbit anti-C3d pAb + FITC anti-rabbit pAb; same column: wild type mfi 22.1, Δmid mfi 23.4 (both carry UspA1 and UspA2), ΔuspA1/A2 mfi 0.3
[2] = molecular target: UspA2 on the surface of M. catarrhalis (clinical isolates BBH18 and RH4) (Moraxella catarrhalis); assay: flow cytometry on M. catarrhalis RH4 ΔuspA1 (UspA2 left on the surface) incubated with C3met: rabbit anti-C3d pAb + FITC anti-rabbit pAb; same column: wild type mfi 22.1, Δmid mfi 23.4 (both carry UspA1 and UspA2), ΔuspA1/A2 mfi 0.3
[3] = molecular target: UspA2 on the surface of M. catarrhalis (clinical isolates BBH18 and RH4) (Moraxella catarrhalis); assay: flow cytometry on M. catarrhalis RH4 ΔuspA1 (UspA2 left on the surface) incubated with EDTA-treated normal human serum: rabbit anti-C3d pAb + FITC anti-rabbit pAb; same column: wild type mfi 5.4, Δmid mfi 5.7 (both carry UspA1 and UspA2), ΔuspA1/A2 mfi 0.8
[4] = molecular target: UspA1 on the surface of M. catarrhalis (clinical isolates BBH18 and RH4) (Moraxella catarrhalis); assay: flow cytometry on M. catarrhalis RH4 ΔuspA2 (UspA1 left on the surface) incubated with EDTA-treated normal human serum: rabbit anti-C3d pAb + FITC anti-rabbit pAb; same column: wild type mfi 5.4, Δmid mfi 5.7 (both carry UspA1 and UspA2), ΔuspA1/A2 mfi 0.8
[5] = molecular target: T1, fibronectin (Sigma), soluble (UniProt P02751 32-2296); assay: ELISA: 40 nM fragment coated, fibronectin 120 µg/ml, rabbit anti-fibronectin pAb + HRP anti-rabbit pAb
T1 construct: also called soluble fibronectin; 125I-labeled fibronectin
T1 sequence (P02751 other isoform, or with tags, fused parts or gaps limits assumed): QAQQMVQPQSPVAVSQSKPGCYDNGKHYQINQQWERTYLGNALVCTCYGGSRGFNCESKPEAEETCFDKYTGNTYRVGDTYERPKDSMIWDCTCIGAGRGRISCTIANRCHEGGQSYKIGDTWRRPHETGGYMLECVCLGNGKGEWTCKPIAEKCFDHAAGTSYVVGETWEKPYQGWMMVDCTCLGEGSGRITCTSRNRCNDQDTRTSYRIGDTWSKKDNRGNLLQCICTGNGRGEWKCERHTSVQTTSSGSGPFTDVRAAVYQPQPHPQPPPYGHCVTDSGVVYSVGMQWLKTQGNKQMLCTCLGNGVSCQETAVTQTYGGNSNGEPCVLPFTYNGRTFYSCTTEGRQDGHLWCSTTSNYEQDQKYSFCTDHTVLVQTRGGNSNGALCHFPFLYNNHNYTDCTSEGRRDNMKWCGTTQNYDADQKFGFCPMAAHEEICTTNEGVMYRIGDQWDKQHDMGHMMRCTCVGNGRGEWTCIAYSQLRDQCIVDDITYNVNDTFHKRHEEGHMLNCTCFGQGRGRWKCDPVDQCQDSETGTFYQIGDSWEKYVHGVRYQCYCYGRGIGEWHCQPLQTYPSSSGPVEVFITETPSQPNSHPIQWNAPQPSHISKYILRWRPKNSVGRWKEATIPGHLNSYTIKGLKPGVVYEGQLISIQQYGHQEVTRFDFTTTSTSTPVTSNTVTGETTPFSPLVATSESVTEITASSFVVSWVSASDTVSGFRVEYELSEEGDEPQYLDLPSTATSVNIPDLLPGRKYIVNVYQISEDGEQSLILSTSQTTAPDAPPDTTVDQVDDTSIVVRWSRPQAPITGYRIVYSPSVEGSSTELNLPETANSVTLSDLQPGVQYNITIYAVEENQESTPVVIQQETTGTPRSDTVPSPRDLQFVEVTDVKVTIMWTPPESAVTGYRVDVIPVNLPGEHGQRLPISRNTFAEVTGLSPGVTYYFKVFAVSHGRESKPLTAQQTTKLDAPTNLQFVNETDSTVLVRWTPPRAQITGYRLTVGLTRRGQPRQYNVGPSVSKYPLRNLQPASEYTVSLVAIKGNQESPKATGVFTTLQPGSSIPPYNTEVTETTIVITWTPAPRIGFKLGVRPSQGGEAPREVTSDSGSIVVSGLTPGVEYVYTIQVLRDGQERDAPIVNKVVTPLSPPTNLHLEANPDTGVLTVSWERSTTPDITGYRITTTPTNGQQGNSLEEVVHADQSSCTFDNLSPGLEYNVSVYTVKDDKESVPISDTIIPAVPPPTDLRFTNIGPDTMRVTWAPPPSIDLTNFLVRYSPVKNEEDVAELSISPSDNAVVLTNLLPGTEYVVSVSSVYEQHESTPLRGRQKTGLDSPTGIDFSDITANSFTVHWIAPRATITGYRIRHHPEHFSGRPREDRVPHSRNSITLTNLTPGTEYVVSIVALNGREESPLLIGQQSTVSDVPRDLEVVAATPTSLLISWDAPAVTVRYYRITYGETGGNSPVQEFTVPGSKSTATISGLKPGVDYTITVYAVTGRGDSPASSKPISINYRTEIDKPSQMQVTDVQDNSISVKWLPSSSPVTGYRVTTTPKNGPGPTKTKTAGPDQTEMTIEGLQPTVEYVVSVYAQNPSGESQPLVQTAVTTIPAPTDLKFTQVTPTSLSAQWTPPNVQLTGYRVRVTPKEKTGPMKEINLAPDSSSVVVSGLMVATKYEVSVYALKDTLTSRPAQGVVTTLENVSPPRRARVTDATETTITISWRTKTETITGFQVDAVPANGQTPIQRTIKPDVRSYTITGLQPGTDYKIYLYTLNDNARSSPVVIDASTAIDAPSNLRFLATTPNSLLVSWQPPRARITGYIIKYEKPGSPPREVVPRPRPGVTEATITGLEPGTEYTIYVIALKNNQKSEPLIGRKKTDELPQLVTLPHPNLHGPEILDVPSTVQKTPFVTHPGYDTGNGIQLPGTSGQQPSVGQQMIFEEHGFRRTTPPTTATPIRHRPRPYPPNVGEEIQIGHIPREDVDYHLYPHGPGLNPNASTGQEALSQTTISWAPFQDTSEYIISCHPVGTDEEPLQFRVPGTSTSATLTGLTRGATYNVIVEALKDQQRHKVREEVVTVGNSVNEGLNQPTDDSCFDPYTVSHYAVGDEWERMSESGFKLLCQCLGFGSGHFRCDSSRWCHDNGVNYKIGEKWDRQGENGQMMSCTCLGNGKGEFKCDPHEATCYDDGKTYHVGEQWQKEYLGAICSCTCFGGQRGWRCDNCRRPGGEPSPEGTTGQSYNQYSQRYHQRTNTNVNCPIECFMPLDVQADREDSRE

[6] = molecular target: T2, Engelbreth-Holm-Swarm mouse sarcoma laminin (Sigma) (mouse, UniProt P19137 25-3083; P02469 22-1786; P02468 34-1607); assay: ELISA: 40 nM protein coated, laminin 20 µg/ml, rabbit anti-laminin pAb + HRP anti-rabbit pAb
T2 construct: also called soluble laminin

[7] = molecular target: T3, methylamine-treated C3 (C3met) (human, UniProt P01024 23-667; P01024 672-1663); assay: ELISA: 40 nM protein coated, C3met in solution, goat anti-human C3 pAb + HRP anti-goat pAb, background subtracted
T3 construct: mature; also called C3b-like molecule; [125I]-C3met
T3 sequence (P01024 23-667 limits assumed, chain 1 of 2): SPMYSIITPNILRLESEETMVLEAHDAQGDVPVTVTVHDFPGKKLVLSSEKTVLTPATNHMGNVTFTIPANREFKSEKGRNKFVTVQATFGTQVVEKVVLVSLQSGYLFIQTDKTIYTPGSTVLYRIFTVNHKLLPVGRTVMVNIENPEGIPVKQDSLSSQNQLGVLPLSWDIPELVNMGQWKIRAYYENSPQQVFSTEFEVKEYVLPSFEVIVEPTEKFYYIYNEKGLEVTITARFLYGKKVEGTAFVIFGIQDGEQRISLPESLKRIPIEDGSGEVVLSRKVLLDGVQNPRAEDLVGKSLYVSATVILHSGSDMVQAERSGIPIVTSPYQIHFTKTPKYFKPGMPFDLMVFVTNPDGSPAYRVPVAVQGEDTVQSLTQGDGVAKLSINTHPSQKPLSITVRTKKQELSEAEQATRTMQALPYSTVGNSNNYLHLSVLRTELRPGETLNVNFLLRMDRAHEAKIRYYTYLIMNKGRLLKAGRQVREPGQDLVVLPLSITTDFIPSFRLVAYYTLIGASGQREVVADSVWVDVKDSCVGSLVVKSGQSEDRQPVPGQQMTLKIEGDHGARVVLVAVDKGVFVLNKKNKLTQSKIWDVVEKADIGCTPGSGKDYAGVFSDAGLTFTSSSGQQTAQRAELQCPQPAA
T3 sequence (P01024 672-1663 limits assumed, chain 2 of 2): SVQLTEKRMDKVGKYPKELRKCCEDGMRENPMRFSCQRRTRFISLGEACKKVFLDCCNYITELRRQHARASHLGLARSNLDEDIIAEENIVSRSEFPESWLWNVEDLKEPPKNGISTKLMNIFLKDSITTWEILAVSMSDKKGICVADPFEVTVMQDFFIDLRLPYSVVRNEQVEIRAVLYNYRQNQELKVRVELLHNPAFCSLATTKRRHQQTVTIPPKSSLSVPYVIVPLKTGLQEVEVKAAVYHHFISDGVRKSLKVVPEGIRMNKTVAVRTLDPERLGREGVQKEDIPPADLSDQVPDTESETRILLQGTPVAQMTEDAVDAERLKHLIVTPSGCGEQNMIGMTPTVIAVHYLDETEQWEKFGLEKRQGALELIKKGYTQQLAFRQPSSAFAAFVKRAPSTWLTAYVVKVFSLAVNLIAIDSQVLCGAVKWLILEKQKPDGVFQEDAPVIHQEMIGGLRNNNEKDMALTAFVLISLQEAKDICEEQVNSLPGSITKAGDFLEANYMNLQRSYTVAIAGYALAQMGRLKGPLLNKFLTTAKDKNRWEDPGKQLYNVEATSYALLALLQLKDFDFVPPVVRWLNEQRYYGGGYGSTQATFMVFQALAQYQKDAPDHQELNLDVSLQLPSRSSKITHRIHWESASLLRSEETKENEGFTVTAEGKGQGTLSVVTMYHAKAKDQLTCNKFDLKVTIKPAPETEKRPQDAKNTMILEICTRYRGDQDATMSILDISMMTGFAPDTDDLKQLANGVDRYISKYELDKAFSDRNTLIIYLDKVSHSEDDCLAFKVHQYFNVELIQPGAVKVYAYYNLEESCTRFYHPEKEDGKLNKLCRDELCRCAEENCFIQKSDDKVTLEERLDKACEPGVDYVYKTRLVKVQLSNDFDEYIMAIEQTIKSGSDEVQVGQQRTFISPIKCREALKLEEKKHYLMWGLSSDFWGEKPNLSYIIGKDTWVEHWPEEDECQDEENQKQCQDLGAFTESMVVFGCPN

[8] = molecular target: T2, Engelbreth-Holm-Swarm mouse sarcoma …; assay: ELISA: 40 nM protein coated, laminin 20 µg/ml, rabbit anti-laminin pAb + HRP anti-rabbit pAb; remark: listed apart in the source
[9] = molecular target: T2, Engelbreth-Holm-Swarm mouse sarcoma …; assay: as above; remark: listed apart in the source
[10] = molecular target: T1, fibronectin (Sigma), soluble; assay: competition, flow cytometry: fibronectin pre-incubated with the UspA1 fragment, then M. catarrhalis added; fibronectin left bound to the bacteria detected with anti-fibronectin pAb
[11] = molecular target: T2, Engelbreth-Holm-Swarm mouse sarcoma …; assay: ELISA: 40 nM protein coated, laminin 20 µg/ml, rabbit anti-laminin pAb + HRP anti-rabbit pAb; remark: listed apart in the source
[12] = molecular target: T1, fibronectin (Sigma), soluble; assay: ELISA: 40 nM fragment coated, fibronectin 80 µg/ml, rabbit anti-fibronectin pAb + HRP anti-rabbit pAb
[13] = molecular target: T2, Engelbreth-Holm-Swarm mouse sarcoma …; assay: ELISA: 40 nM UspA2 30-539 coated, soluble laminin titrated in three-fold steps 0.03-60 µg/ml, rabbit anti-laminin pAb + HRP anti-rabbit pAb
[14] = molecular target: T3, methylamine-treated C3 (C3met); assay: SPR (Biacore 2000), UspA protein amine-coupled on CM5 chip, C3met injected, steady state affinity model; UspA2^30-539 on the chip

“methylamine-treated C3 (C3met) (from UniProt P01024 23-667; P01024 672-1663)” showed a mfi [1] of 2.7 and a mfi [2] of 14.9.

With “complement C3 in normal human serum (from UniProt P01024 23-667; P01024 672-1663)” the mfi [3] was 3.9 and the mfi [4] was 1.4.

B1: UspA2 446-539 (other)
recombinant truncated protein: TDRIAKNKADDDASFETLTKNQNTLIEKDKEHDKLITANKTAIDANKASADTKFAATADAFTKNGNAITKNAKSITDLGTKVDGFDSRVTALDT
B1: no binding [5]; no binding [6]; no binding [7].

B2: recombinant UspA1^50-491 (other)
chain: KVGKATNKISGGDNNTANGTYLTIGGGDYNKTKGRYSTIGGGLFNEATNEYSTIGSGGYNKAKGRYSTIGGGGYNEATNQYSTIGGGDNNTAKGRYSTIGGGGYNEATIENSTVGGGGYNQAKGRNSTVAGGYNNEATGTDSTIAGGRKNQATGKGSFAAGIDNKANADNAVALGNKNTIEGENSVAIGSNNTVKKGQQNVFILGSNTDTTNAQNGSVLLGHNTAGKAATIVNSAEVGGLSLTGFAGASKTGNGTVSVGKKGKERQIVHVGAGEISDTSTDAVNGSQLHVLATVVAQNKADIKDLDDEVGLLGEEINSLEGEIFNNQDAIAKNQADIKTLESNVEEGLLDLSGRLLDQKADIDNNINNIYELAQQQDQHSSDIKTLKNNVEEGLLDLSGRLIDQKADLTKDIKALESNVEEGLLDLSGRLIDQKADIAKNQA
notes: also called N-terminal half of UspA1
B2: binds [8].

B3: recombinant UspA1^680-770 (other)
chain: KAINQELEGFAAHADVQDKQILQNQADITTNKTAIEQNINRTVANGFEIEKNKAGIATNKQELILQNDRLNRINETNNHQDQKIDQLGYAL
B3: no binding [9]; no binding [10].

B4: recombinant UspA1^433-580 (other)
chain: KTLKNNVEEGLLDLSGRLIDQKADLTKDIKALESNVEEGLLDLSGRLIDQKADIAKNQADIAQNQTDIQDLAAYNELQDAYAKQQTEAIDALNKASSANTDRIATAELGIAENKKDAQIAKAQANENKDGIAKNQADIQLHDKKITNL
B4: no binding [9]; no binding [10].

B5: recombinant UspA2^30-177 (other)
chain: QAKNDITLEDLPYLIKKIDQNELEADIGDITALEKYLALSQYGNILALEELNKALEELDEDVGWNQNDIANLEDDVETLTKNQNAFAEQGEAIKEDLQGLADFVEGQEGKILQNETSIKKNTQRNLVNGFEIEKNKDAIAKNNESIED
B5: no binding [5]; binds [11].

B6: recombinant UspA1^50-197 (other)
chain: KVGKATNKISGGDNNTANGTYLTIGGGDYNKTKGRYSTIGGGLFNEATNEYSTIGSGGYNKAKGRYSTIGGGGYNEATNQYSTIGGGDNNTAKGRYSTIGGGGYNEATIENSTVGGGGYNQAKGRNSTVAGGYNNEATGTDSTIAGGR
B6: no binding [12]; no binding [9].

B7: recombinant UspA1^557-704 (other)
chain: NENKDGIAKNQADIQLHDKKITNLGILHSMVARAVGNNTQGVATNKADIAKNQADIANNIKNIYELAQQQDQHSSDIKTLAKVSAANTDRIAKNKAEADASFETLTKNQNTLIEQGEALVEQNKAINQELEGFAAHADVQDKQILQNQ
B7: no binding [9]; no binding [10].

B8: recombinant UspA2^302-458 (other)
chain: IQDLATYNELQDQYAQKQTEAIDALNKASSENTQNIEDLAAYNELQDAYAKQQTEAIDALNKASSENTQNIEDLAAYNELQDAYAKQQAEAIDALNKASSENTQNIAKNQADIANNITNLYELAQQQDKHRSDIKTLAKTSAANTDRIAKNKADDDA
B8: no binding [6].

B9: recombinant UspA1^50-321 (other)
chain: KVGKATNKISGGDNNTANGTYLTIGGGDYNKTKGRYSTIGGGLFNEATNEYSTIGSGGYNKAKGRYSTIGGGGYNEATNQYSTIGGGDNNTAKGRYSTIGGGGYNEATIENSTVGGGGYNQAKGRNSTVAGGYNNEATGTDSTIAGGRKNQATGKGSFAAGIDNKANADNAVALGNKNTIEGENSVAIGSNNTVKKGQQNVFILGSNTDTTNAQNGSVLLGHNTAGKAATIVNSAEVGGLSLTGFAGASKTGNGTVSVGKKGKERQIVHVGA
B9: no binding [9]; no binding [10].

B10: recombinant UspA2^30-539 (M. catarrhalis Bc5) (other)
chain: QAKNDITLEDLPYLIKKIDQNELEADIGDITALEKYLALSQYGNILALEELNKALEELDEDVGWNQNDIANLEDDVETLTKNQNAFAEQGEAIKEDLQGLADFVEGQEGKILQNETSIKKNTQRNLVNGFEIEKNKDAIAKNNESIEDLYDFGHEVAESIGEIHAHNEAQNETLKGLITNSIENTNNITKNKADIQALENNVVEELFNLSGRLIDQKADIDNNINNIYELAQQQDQHSSDIKTLKKNVEEGLLELSDHIIDQKTDIAQNQANIQDLATYNELQDQYAQKQTEAIDALNKASSENTQNIEDLAAYNELQDAYAKQQTEAIDALNKASSENTQNIEDLAAYNELQDAYAKQQAEAIDALNKASSENTQNIAKNQADIANNITNLYELAQQQDKHRSDIKTLAKTSAANTDRIAKNKADDDASFETLTKNQNTLIEKDKEHDKLITANKTAIDANKASADTKFAATADAFTKNGNAITKNAKSITDLGTKVDGFDSRVTALDT
notes: also called UspA^230-539 [sic]
B10 was tested, and the “EC50 (read off the curve)” value [13] was roughly 3 µg/mL and the Kd [14] was 3000 nM.

B11: recombinant UspA2^101-318 (other)
chain: LEDDVETLTKNQNAFAEQGEAIKEDLQGLADFVEGQEGKILQNETSIKKNTQRNLVNGFEIEKNKDAIAKNNESIEDLYDFGHEVAESIGEIHAHNEAQNETLKGLITNSIENTNNITKNKADIQALENNVVEELFNLSGRLIDQKADIDNNINNIYELAQQQDQHSSDIKTLKKNVEEGLLELSDHIIDQKTDIAQNQANIQDLATYNELQDQYAQK
B11: no binding [6].

B12: UspA1 454-770 (other)
recombinant truncated protein: KADLTKDIKALESNVEEGLLDLSGRLIDQKADIAKNQADIAQNQTDIQDLAAYNELQDAYAKQQTEAIDALNKASSANTDRIATAELGIAENKKDAQIAKAQANENKDGIAKNQADIQLHDKKITNLGILHSMVARAVGNNTQGVATNKADIAKNQADIANNIKNIYELAQQQDQHSSDIKTLAKVSAANTDRIAKNKAEADASFETLTKNQNTLIEQGEALVEQNKAINQELEGFAAHADVQDKQILQNQADITTNKTAIEQNINRTVANGFEIEKNKAGIATNKQELILQNDRLNRINETNNHQDQKIDQLGYAL
B12: no binding [9].

B13: recombinant UspA2^165-318 (other)
chain: KDAIAKNNESIEDLYDFGHEVAESIGEIHAHNEAQNETLKGLITNSIENTNNITKNKADIQALENNVVEELFNLSGRLIDQKADIDNNINNIYELAQQQDQHSSDIKTLKKNVEEGLLELSDHIIDQKTDIAQNQANIQDLATYNELQDQYAQK
notes: also called UspA2^165-316; UspA2^155-318 (misprints)
B13: no binding [6].
